Assay results from publication PMC12501226.

Columns and labels:
Assay in all cases: SEC
[1] = target: T1A (collagen XVIII trimerization domain, 1-residue G/S linker, ACE2 18-615) (human) (UniProt P39060)
[2] = target: T3A (collagen XVIII trimerization domain, 3-residue G/S linker, ACE2 18-615) (human) (UniProt P39060)
[3] = target: T5A (collagen XVIII trimerization domain, 5-residue G/S linker, ACE2 18-615) (human) (UniProt P39060)
[4] = target: T18A (collagen XVIII trimerization domain, 18-residue G/S linker, ACE2 18-615) (human) (UniProt P39060)

“T1A (collagen XVIII trimerization domain, 1-residue G/S linker, ACE2 18-615) (from UniProt P39060;Q9BYF1)” was tested, and the stoichiometry N [1] was 3.
Substance “T3A (collagen XVIII trimerization domain, 3-residue G/S linker, ACE2 18-615) (from UniProt P39060;Q9BYF1)” has a stoichiometry N [2] of 3.
For “T5A (collagen XVIII trimerization domain, 5-residue G/S linker, ACE2 18-615) (from UniProt P39060;Q9BYF1)”, the stoichiometry N [3] was 3.
Work on “T18A (collagen XVIII trimerization domain, 18-residue G/S linker, ACE2 18-615) (from UniProt P39060;Q9BYF1)” yielded a stoichiometry N [4] of 3.
